Source: paper PMC5408658, “In vitro characterization of six STUB1 variants in spinocerebellar ataxia 16 reveals altered structural properties for the encoded CHIP proteins” (Bioscience Reports, 2017)

Key:
[1] = target: T1, His-maltose-binding protein (MBP)-CHIP fusion protein, wild type (human), Q9UNE7; assay: SEC; 1 mg MBP-CHIP fusion protein, Superdex 200 Increase 10/300 GL, 20 mM NaH2PO4 pH 7.4, 0.3 ml/min, 4°C; self-association (monomers, dimers, higher oligomers); conditions: remark: other sources report otherwise
T1 chain: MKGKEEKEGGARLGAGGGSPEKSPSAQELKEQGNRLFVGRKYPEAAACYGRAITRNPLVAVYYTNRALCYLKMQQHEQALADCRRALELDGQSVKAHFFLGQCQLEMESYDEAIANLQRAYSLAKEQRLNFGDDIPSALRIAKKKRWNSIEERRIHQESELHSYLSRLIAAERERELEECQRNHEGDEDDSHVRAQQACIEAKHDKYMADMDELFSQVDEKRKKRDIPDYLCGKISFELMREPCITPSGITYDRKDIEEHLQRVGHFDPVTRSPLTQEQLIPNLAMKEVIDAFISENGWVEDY

[2] = target: the molecule itself; assay: native gel or EMSA; 10 ug MBP fusion protein on a 12% NativePAGE Bis-Tris gel, Coomassie Blue staining; self-association (oligomeric states)
[3] = target: the molecule itself; assay: SEC; 1 mg MBP-CHIP fusion protein, Superdex 200 Increase 10/300 GL, 20 mM NaH2PO4 pH 7.4, 0.3 ml/min, 4°C; self-association (monomers, dimers, higher oligomers)

B1: His-maltose-binding protein (MBP)-CHIP fusion protein, wild type, Q9UNE7-1 1-303 (enzyme)
chain: MKGKEEKEGGARLGAGGGSPEKSPSAQELKEQGNRLFVGRKYPEAAACYGRAITRNPLVAVYYTNRALCYLKMQQHEQALADCRRALELDGQSVKAHFFLGQCQLEMESYDEAIANLQRAYSLAKEQRLNFGDDIPSALRIAKKKRWNSIEERRIHQESELHSYLSRLIAAERERELEECQRNHEGDEDDSHVRAQQACIEAKHDKYMADMDELFSQVDEKRKKRDIPDYLCGKISFELMREPCITPSGITYDRKDIEEHLQRVGHFDPVTRSPLTQEQLIPNLAMKEVIDAFISENGWVEDY
stoichiometry N [1]: 2

B2: His-MBP-CHIP fusion protein, S236T (enzyme, human, UniProt Q9UNE7-1 1-303, looked up)
chain: MKGKEEKEGGARLGAGGGSPEKSPSAQELKEQGNRLFVGRKYPEAAACYGRAITRNPLVAVYYTNRALCYLKMQQHEQALADCRRALELDGQSVKAHFFLGQCQLEMESYDEAIANLQRAYSLAKEQRLNFGDDIPSALRIAKKKRWNSIEERRIHQESELHSYLSRLIAAERERELEECQRNHEGDEDDSHVRAQQACIEAKHDKYMADMDELFSQVDEKRKKRDIPDYLCGKITFELMREPCITPSGITYDRKDIEEHLQRVGHFDPVTRSPLTQEQLIPNLAMKEVIDAFISENGWVEDY
notes: CHIP (STUB1), human, full-length cDNA in pETM-41, pathogenic SCAR16 variant S236T; Variant found in patients; made by site-directed mutagenesis; also called MBP-CHIP S236T; source: E. coli BL21-CodonPlus (DE3)-RP, purified (Ni-NTA)
binding result [2]: binds

B3: His-MBP-CHIP fusion protein, M211I (enzyme, human, UniProt Q9UNE7-1 1-303, looked up)
chain: MKGKEEKEGGARLGAGGGSPEKSPSAQELKEQGNRLFVGRKYPEAAACYGRAITRNPLVAVYYTNRALCYLKMQQHEQALADCRRALELDGQSVKAHFFLGQCQLEMESYDEAIANLQRAYSLAKEQRLNFGDDIPSALRIAKKKRWNSIEERRIHQESELHSYLSRLIAAERERELEECQRNHEGDEDDSHVRAQQACIEAKHDKYMADIDELFSQVDEKRKKRDIPDYLCGKISFELMREPCITPSGITYDRKDIEEHLQRVGHFDPVTRSPLTQEQLIPNLAMKEVIDAFISENGWVEDY
notes: CHIP (STUB1), human, full-length cDNA in pETM-41, pathogenic SCAR16 variant M211I; Variant found in patients; made by site-directed mutagenesis; also called MBP-CHIP M211I; source: E. coli BL21-CodonPlus (DE3)-RP, purified (Ni-NTA)
binding result [2]: binds

B4: His-MBP-CHIP fusion protein, K145Q (enzyme, human, UniProt Q9UNE7-1 1-303, looked up)
chain: MKGKEEKEGGARLGAGGGSPEKSPSAQELKEQGNRLFVGRKYPEAAACYGRAITRNPLVAVYYTNRALCYLKMQQHEQALADCRRALELDGQSVKAHFFLGQCQLEMESYDEAIANLQRAYSLAKEQRLNFGDDIPSALRIAKKQRWNSIEERRIHQESELHSYLSRLIAAERERELEECQRNHEGDEDDSHVRAQQACIEAKHDKYMADMDELFSQVDEKRKKRDIPDYLCGKISFELMREPCITPSGITYDRKDIEEHLQRVGHFDPVTRSPLTQEQLIPNLAMKEVIDAFISENGWVEDY
notes: CHIP (STUB1), human, full-length cDNA in pETM-41, pathogenic SCAR16 variant K145Q; Variant found in patients; made by site-directed mutagenesis; also called MBP-CHIP K145Q; source: E. coli BL21-CodonPlus (DE3)-RP, purified (Ni-NTA)
binding result [2]: binds

B5: His-MBP-CHIP fusion protein, N65S (enzyme, human, UniProt Q9UNE7-1 1-303, looked up)
chain: MKGKEEKEGGARLGAGGGSPEKSPSAQELKEQGNRLFVGRKYPEAAACYGRAITRNPLVAVYYTSRALCYLKMQQHEQALADCRRALELDGQSVKAHFFLGQCQLEMESYDEAIANLQRAYSLAKEQRLNFGDDIPSALRIAKKKRWNSIEERRIHQESELHSYLSRLIAAERERELEECQRNHEGDEDDSHVRAQQACIEAKHDKYMADMDELFSQVDEKRKKRDIPDYLCGKISFELMREPCITPSGITYDRKDIEEHLQRVGHFDPVTRSPLTQEQLIPNLAMKEVIDAFISENGWVEDY
notes: CHIP (STUB1), human, full-length cDNA in pETM-41, pathogenic SCAR16 variant N65S; Variant found in patients; made by site-directed mutagenesis; also called CHIP-N65S; MBP-CHIP N65S; source: E. coli BL21-CodonPlus (DE3)-RP, purified (Ni-NTA)
stoichiometry N [3]: 2

B6: His-MBP-CHIP fusion protein, T246M (enzyme, human, UniProt Q9UNE7-1 1-303, looked up)
chain: MKGKEEKEGGARLGAGGGSPEKSPSAQELKEQGNRLFVGRKYPEAAACYGRAITRNPLVAVYYTNRALCYLKMQQHEQALADCRRALELDGQSVKAHFFLGQCQLEMESYDEAIANLQRAYSLAKEQRLNFGDDIPSALRIAKKKRWNSIEERRIHQESELHSYLSRLIAAERERELEECQRNHEGDEDDSHVRAQQACIEAKHDKYMADMDELFSQVDEKRKKRDIPDYLCGKISFELMREPCIMPSGITYDRKDIEEHLQRVGHFDPVTRSPLTQEQLIPNLAMKEVIDAFISENGWVEDY
notes: CHIP (STUB1), human, full-length cDNA in pETM-41, pathogenic SCAR16 variant T246M; Variant found in patients; made by site-directed mutagenesis; also called CHIP-T246M; MBP-CHIP T246M; source: E. coli BL21-CodonPlus (DE3)-RP, purified (Ni-NTA)
binding result [2]: binds
